Experimental data from the RNAGym collection of RNA variant scans (doi:10.1073/pnas.2313332121).

B1: TPR t1 (parent)
chain: GACCAAUCUGCCCUCAGAGCUCGAGAACAUCUUCGGAUGCAGAGGAGGCAGGCUUCGGUGGCGCGAUAGCGCCAACGUCCUCAACCUCCAAUGCAUCCCACCACAUGAUGAUGCCUGAAGAGCCUUGGUUUUUUG

Variants of: B1
Assay: polymerase ribozyme fitness, log enrichment relative to wild type (log ratio); higher = more active; in vitro selection for triplet polymerase activity
How it was run: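 Only genotypes with ≥10 input reads and ≥1 read per output were kept after Illumina sequencing of input and output libraries. These libraries were PCR-built, transcribed mutants of each subunit of a heterodimeric triplet polymerase ribozyme, each put through one triplicate in vitro selection round with frozen incubation at −7 °C, gel excision of extended constructs, streptavidin-bead capture and RT-PCR. Fitness is a logarithmic ratio of genotype enrichment to wild-type enrichment, from inverse-variance-weighted replicate averages, with the logarithm in base 2.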

| Variant | polymerase ribozyme fitness (log ratio) |
| --- | --- |
| G17U U116A G120A U129G | -5.36 |
| G19A A46C U125A | -3.96 |
| A18G U54A C62U C88G A111C G113C U125A | -3.53 |
| A18U U125G | -3.41 |
| A18G G113U | -4.5 |
| A18G G113A | -1.78 |
| A18U C88A | -3.06 |
| A18U A95G | -2.21 |
| A18C A74U | -4.85 |
| A18U C28U | -5.29 |
| A18C C124G G128U | -3.83 |
| A18C C73U | -2.53 |
| A18C C73A | -2.69 |
| A18U U112C G128A | -2.38 |
| G17U U55A U112A C114G G120C | -5.87 |
| A18C C34U U112A A119G | -6.08 |
| A18U A41U C56U C72A U133A | -3.75 |
| A18G U112A | -0.0704 |
| A18U A83C C94G C115G C123G U134G | -1.77 |
| G19A A41U C56G U59A | -5.05 |
| A18U A83U C101A | -3.63 |
| A18U A50U | -4.84 |
| A18U A43G G60A U92C U112C | -0.561 |
| G17U U78C C114G | -5.37 |

| Variant | polymerase ribozyme fitness (log ratio) |
| --- | --- |
| A18G C62U C86G | -4.96 |
| A18G G44U C86A C104U G120C | -3.98 |
| A18U C40A A41U | -3.61 |
| A18C C49A G60U U106A A111C | -5.37 |
| G19A A121C | -1.3 |
| A18C C22U C40U G71U A118U | -6.12 |
| A18U C56U | -1.72 |
| G17U U96A A119G | -1.01 |
| A18U C49A | -2.29 |
| A18U C49G | -3.54 |
| A18U G61A | -1.19 |
| A18U G61C | -5.22 |
| A18U A121C | -0.0692 |
| A18U C88U A111U G127A | -5.73 |
| G19A A91G G117A | -5.25 |
| G17U U87G | -2.25 |
| G17U U87A | -2.81 |
| A18U G44A A46U G48C G61U C72U C98U | -5.97 |
| A18C U92C G117A G120U U129A | -5.88 |
| A18U A74U U78C A111C | -4.61 |
| A18U C64U | -2 |
| A18C U131A | -2.1 |
| A18U G45A C73U | -2.84 |
| A18U G57A U106A | -5.57 |

| Variant | polymerase ribozyme fitness (log ratio) |
| --- | --- |
| A18U G93C C97U G128U | -5.92 |
| A18G A105G U112C G117C U132A | -3.97 |
| A18U G77U | -2.27 |
| G19A C20A A66G G69U U96A | -4.02 |
| A18U C64U C72G A121G | -0.335 |
| A18U C40U C94U | -3.46 |
| A18C G42C G47A | -2.35 |
| A18C G48A | -2.74 |
| A18U A29G A43U G52A G60A C88U C94U | -5.06 |
| A18G G63C C85U G110U | -3.81 |
| A18U G48U G61U C104U | -2.08 |
| A18C A111U | -5.16 |
| A18C A111G | 0.883 |
| A18U C70G C79A | -7.76 |
| A18G U129A | -4.53 |
| A18G C34G C70A U109A G128A | -5.92 |
| A18G G19A A43C C56U G110A | -2.58 |
| A18G G113U G128U U132A | -5.64 |
| A18G A43C C53A G63U | -5.8 |
| A18C A121C | -1.86 |
| A18G A118G | -3.1 |
| A18U U21G C79G G93C G107C A108U C123G C124U | -7.63 |
| A18G C20U A29U U32G C53A C97U | -2.71 |
| A18U A26G G71U G120A G127U | -5.55 |

| Variant | polymerase ribozyme fitness (log ratio) |
| --- | --- |
| A18U C85A | -4.19 |
| A18C U87C | -2.11 |
| A18C C20G G47U G48U | -4.66 |
| G19A C22A G113C | -4.67 |
| A18C G52A C72U | -2.39 |
| A18G C31A C62U U112A C115U G122U | -5.9 |
| A18U C62U C64U A74C A90U A121C U129A | -6.59 |
| A18C A50C G58A C97U | -5.7 |
| A18U C70U A121U | -1.34 |
| A18U C28A C85G A111U | -4.7 |
| A18U G60A C88G A118U U130G | -3.95 |
| A18U C40U C72U U78G C123G G135C | -1.48 |
| A18C C72G C89G C114A U130A | -4.03 |
| A18U G42A U130A | -3.41 |
| A18C G61C C89G U116C C124A | -2.98 |
| A18U G44U C124U | -1.28 |
| A18U C94U C101A G110A | -6.65 |
| A18C G127C | -3.02 |
| A18U G44C C73A A90C | -1.95 |
| A18C C64U | -2.61 |
| G19A A26G U112C A118U | -3.63 |
| A18C G19A C85U G120A | -3.39 |
| A18U C72U C85A | -3.5 |
| A18U C85G G113C | -5.2 |

| Variant | polymerase ribozyme fitness (log ratio) |
| --- | --- |
| A18U A91G | -1.85 |
| A18C U78C | -1.87 |
| A18C G35U A103U C115U | -4.68 |
| A18C U112G | -3 |
| A18U U96A | -3.21 |
| A18G U21C G110A | -2.38 |
| A18G A43U G71A | -4.88 |
| A18U C56U C123G U129A | -1.91 |
| A18C A43U G63A U81A | -6.15 |
| G17U U106A | -2.49 |
| A18C G71C A121C C123U C124U | -3.96 |
| A18G C40U C53U A83U G93C | -5.03 |
| A18G A68U U87G U109A | -5.24 |
| A18U C40A | -3.76 |
| A18G C82A C94U | -4.18 |
| A18C G77C | -2.76 |
| A18C G61A C85G | -3.25 |
| A18G C114U | -3.96 |
| A18C G69U C115U | -1.28 |
| A18U C22G A66U U78C C82U | -6.51 |
| A18C C22G G63A U130G | -5.14 |
| A18U C56U C64A G69A U112C U129A | -5.64 |
| G17U U67G C73A U78C G93U C98G U116C | -6.28 |
| A18C C56A C73U C86U A90G U106A A108C U112A | -5.34 |

| Variant | polymerase ribozyme fitness (log ratio) |
| --- | --- |
| G19A A43U C53U C56A G71C | -5.18 |
| A18U A111C | -2.74 |
| A18U A26G C40G A43U C97A U112A | -6.73 |
| A18U U38G C123A | -4.13 |
| A18U G127C | -3.45 |
| A18U C53U C124G | -0.337 |
| A18G G93C | -3.75 |
| A18U U92A | -4.67 |
| A18C G48U G57U | -2.85 |
| A18C C73G C114U | -3.9 |
| A18U C73A | -3.04 |
| A18U U54A C72G | -2.46 |
| A18G C101U C114U U129A | -5.75 |
| A18U C62U | -2.48 |
| A18U C62G | -4.86 |
| A18G C56G G58C C114A | -3.34 |
| A18U C70U | -3.33 |
| A18U C70A | -5.29 |
| A18U C70G | -6.16 |
| A18C G69C U133A | -4.77 |
| A18U C20G A50U C72G G113A | -4.8 |
| A18G C20U G39A A43G C49A A66U U78G | -6.02 |
| A18U C123U | -1.12 |
| A18U G57C G77U A105U U112C | -4.24 |

| Variant | polymerase ribozyme fitness (log ratio) |
| --- | --- |
| A18U G69U C115G | -0.333 |
| A18U C124U | -1.01 |
| A18U G60A A90C | -1.79 |
| G17U U96C | -3.71 |
| A18U C79A G93A U116A C124U | -6.2 |
| A18C G113C | -3.55 |
| A18C G60A C89G U106A | -3.6 |
| A18G C102G G110U | -5.75 |
| A18G C49U G107A | -5.11 |
| A18G A37G A66U C94U G113C G117A | -4.01 |
| A18C U55C | -3.52 |
| A18C U55G | -1.99 |
| G19A C76A C89G | -4.06 |
| A18C C56U | -2.56 |
| A18C C56A | -3.08 |
| A18U U21A G51C C53G C56A G57C C79U C115U U130G U131A | -5.86 |
| A18U G71A G120A | -3.53 |
| A18U C62U C86A C114U | -5.98 |
| A18C U54G C123G | -0.39 |
| A18G G63C | -2.89 |
| A18G C82A | -4.16 |
| A18U C22U A37U A118U | -5.28 |
| G19A C62U U78G | -3.47 |
